# Measurements as given in paper PMC12589211, “Development of lisinopril radioconjugates for nuclear imaging of the angiotensin converting enzyme” (European Journal of Nuclear Medicine and Molecular Imaging, 2025).
# Experiments:
# in vivo = settings: female, mouse, iv, 3 MBq; for tissue uptake at 1 h / tissue uptake at 3 h: total radioactivity
# Experimental: All applicable international, national, and/or institutional guidelines for the care and use of laboratory animals were followed and the animal experiments were carried out according to the guidelines of the Swiss Regulations for Animal Welfare. Preclinical studies were ethically approved by the Cantonal Committee of Animal Experimentation and permitted by the responsible cantonal authorities (License N° 75743). Five-week-old female Crl: CD1-Foxn^nu (CD1/nude) mice were obtained from Charles River Laboratories (Sulzfeld, Germany) and fed with standard rodent chow ad libitum. The mice were subcutaneously inoculated with HEK-ACE (8 × 10^6 cells in 100 µL PBS) on the left shoulder and approximately one week later with HEK-ACE2 cells (4–6 × 10^6 cells in 100 µL PBS) on the right shoulder. Imaging and biodistribution studies were performed 2‒4 weeks later when the xenografts reached a size of 100–300 mm^3.
# Mice were intravenously injected with 3 MBq [^67Ga]Ga-DOTA-LIS-02 or 3 MBq [^67Ga]Ga-NODAGA-LIS-02 (0.5 nmol, 100 µL) or 3 MBq [^44Sc]Sc-DOTA-LIS-02 (1 nmol, 100 µL) diluted in saline containing 0.05% bovine serum albumin (BSA). The mice were sacrificed 1 h and 3 h after administration of the respective radioconjugate. Selected tissues and organs were collected, weighed and counted for activity using the γ-counter. The results were listed as a percentage of the injected activity per gram of tissue mass (% IA/g), using counts of a defined volume of the original injection solution measured at the same time to calculate decay-corrected values. Statistical analysis was performed by applying a regular one-way ANOVA test with a Tukey’s multiple comparison post‐hoc test to compare the data of the radioconjugates. A p-value of < 0.05 was considered as statistically significant (GraphPad Prism software, version 8.3.1).
# [1] = test system: human blood plasma proteins; assay: in vitro; assay type: in vitro ADME; settings: 30 min, 0.1 µM
# Experimental: (§1) The n-octanol/phosphate buffered saline (PBS) distribution coefficients (logD values) of the radioconjugates (20 MBq/nmol) were determined using the shake-flask method, as previously reported (Supplementary material). The binding affinity of the radioconjugates (20 MBq/nmol) to serum proteins was assessed using an ultrafiltration assay as previously reported (Supplementary Material). Methods: The plasma protein binding of the radioconjugates (20 MBq/nmol) was assessed using mouse blood plasma (Lot N°: 32321, Rockland Immunochemicals, Inc., USA,; concentration of mouse serum albumin (MSA): ⁓550 µM) and human blood plasma (Stiftung Blutspende SRK Aargau-Solothurn, Switzerland; concentration of human serum albumin (HSA): ⁓800 µM), respectively. After incubation in mouse and human blood plasma (0.3 MBq in 150 μL) for 30 min at 37 °C, the samples were cooled on ice and diluted with ice-cold PBS (150 μL). The plasma protein-bound fraction was separated from the free (plasma protein-unbound) fraction of each sample by means of Amicon centrifugal filters (Amicon Ultra, 0.5 mL, Merck Millipore; cutoff 10 kDa) by ultrafiltration using a centrifuge (14000 rcf, 30 min at 4 °C). Afterwards, the filter inserts were inverted and centrifuged again (200 rcf) for 3 min to recover the protein-bound fraction of the radioconjugates. The activities of the free radioconjugates in the filtrate, as well as in the filter insert and the plasma protein-bound radioconjugate (bound), were counted for activity separately using a γ-counter (Wallac Wizard 1480, PerkinElmer). The total activity (total) was determined as the sum of the activities in the filtrate, filter insert, and protein-bound fractions. The percentage of radioconjugate bound to MSA and HSA was calculated as Abound/Atotal*100. The results were presented as average ± SD of 3 independent experiments.
# [2] = test system: mouse blood plasma proteins; assay: in vitro; assay type: in vitro ADME; settings: 30 min, 0.1 µM
# Experimental: as §1
# in vitro = in vitro ADME; settings: plasma
# Experimental: as §1
# physchem = assay type: physicochemical; settings: pH 7.4, logD value (n-octanol/PBS distribution coefficient)
# Experimental: The n-octanol/phosphate buffered saline (PBS) distribution coefficients (logD values) of the radioconjugates (20 MBq/nmol) were determined using the shake-flask method, as previously reported (Supplementary material). The binding affinity of the radioconjugates (20 MBq/nmol) to serum proteins was assessed using an ultrafiltration assay as previously reported (Supplementary Material). Methods: A fixed amount of the respective radioconjugate (0.5 MBq, 25 µL) was added to radio-immunoassay (RIA) tubes containing a mixture of PBS pH 7.4 (1475 µL) and n-octanol (1500 µL). After vortexing vigorously for 1 min, the tubes were centrifuged (560 rcf) for 6 min to obtain phase separation. The activity in the organic and aqueous phases was determined using a γ-counter (Wallac Wizard 1480, PerkinElmer). The distribution coefficients were expressed as the logarithm of the ratio of counts per minute (cpm) measured in the n-octanol phase to the cpm measured in the PBS pH 7.4 phase and indicated as the average of three independent measurements ± SD, each performed with five replicates.
# [3] = CD1/nude (Crl:CD1-Foxn nu), 3 h
# [4] = Crl:CD1-Foxn^nu (CD1/nude), 1 h
# [5] = CD1/nude (Crl:CD1-Foxn nu), 1 h
# [6] = Crl:CD1-Foxn^nu (CD1/nude), 3 h
# [7] = human, Fraction bound to human blood plasma proteins
# [8] = mouse, Fraction bound to mouse blood plasma proteins
# [9] = CD1/nude (Crl:CD1-Foxn nu), Biodistribution, Bone
# [10] = CD1/nude (Crl:CD1-Foxn nu), Biodistribution, HEK-ACE xgft
# [11] = CD1/nude (Crl:CD1-Foxn nu), Biodistribution, Intestines
# [12] = CD1/nude (Crl:CD1-Foxn nu), Biodistribution, Liver
# [13] = CD1/nude (Crl:CD1-Foxn nu), Biodistribution, Muscle
# [14] = CD1/nude (Crl:CD1-Foxn nu), Biodistribution, Salivary glands
# [15] = CD1/nude (Crl:CD1-Foxn nu), Biodistribution, Stomach
# [16] = Crl:CD1-Foxn^nu (CD1/nude), Biodistribution, Blood
# [17] = Crl:CD1-Foxn^nu (CD1/nude), Biodistribution, Heart
# [18] = Crl:CD1-Foxn^nu (CD1/nude), Biodistribution, Kidneys
# [19] = Crl:CD1-Foxn^nu (CD1/nude), Biodistribution, Lung
# [20] = Crl:CD1-Foxn^nu (CD1/nude), Biodistribution, Spleen
compound,measurement,setting,value
O=C(O)CN1CCN(CC(=O)O)CCN(CC(=O)NCCCC[C@H](NC(=O)CCCCCCCNC(=O)NCCCC[C@H](N[C@@H](CCc2ccccc2)C(=O)O)C(=O)N2CCC[C@H]2C(=O)O)C(=O)O)CCN(CC(=O)O)CC1 [[^67Ga]Ga-DOTA-LIS-02] [metal not drawn],"Biodistribution, Intestines",in vivo; [3],0.22 ± 0.90 %IA/g
same,"Biodistribution, Liver",in vivo; [3],0.76 ± 0.13 %IA/g
same,"Biodistribution, Spleen",in vivo; [4],0.51 ± 0.65 %IA/g
O=C(O)CN1CCN(CC(=O)O)CCN(CC(=O)NCCCC[C@H](NC(=O)CCCCCCCNC(=O)NCCCC[C@H](N[C@@H](CCc2ccccc2)C(=O)O)C(=O)N2CCC[C@H]2C(=O)O)C(=O)O)CCN(CC(=O)O)CC1 [[^44Sc]Sc-DOTA-LIS-02] [metal not drawn],Fraction bound to human blood plasma proteins,[1],49 ± 2%
same,Fraction bound to mouse blood plasma proteins,[2],42 ± 4%
same,"Biodistribution, Blood",in vivo; [5],0.24 ± 0.03 %IA/g
same,"Biodistribution, Bone",in vivo; [5],0.17 ± 0.02 %IA/g
same,"Biodistribution, Intestines",in vivo; [5],0.16 ± 0.02 %IA/g
same,"Biodistribution, Liver",in vivo; [5],0.14 ± 0.01 %IA/g
same,"Biodistribution, Muscle",in vivo; [5],0.16 ± 0.02 %IA/g
same,"Biodistribution, Salivary glands",in vivo; [5],0.19 ± 0.02 %IA/g
same,"Biodistribution, Stomach",in vivo; [5],0.22 ± 0.15 %IA/g
same,"Biodistribution, Bone",in vivo; [3],0.07 ± 0.03 %IA/g
same,"Biodistribution, Intestines",in vivo; [3],0.05 ± 0.01 %IA/g
same,"Biodistribution, Liver",in vivo; [3],0.09 ± 0.01 %IA/g
same,"Biodistribution, Muscle",in vivo; [3],0.07 ± 0.04 %IA/g
same,"Biodistribution, Salivary glands",in vivo; [3],0.09 ± 0.05 %IA/g
same,"Biodistribution, Stomach",in vivo; [3],<0.05 %IA/g
same,"Biodistribution, Heart",in vivo; [4],0.18 ± 0.03 %IA/g
same,"Biodistribution, Kidneys",in vivo; [4],6.1 ± 0.8 %IA/g
same,"Biodistribution, Lung",in vivo; [4],2.0 ± 0.6 %IA/g
same,"Biodistribution, Spleen",in vivo; [4],0.14 ± 0.05 %IA/g
same,"Biodistribution, Blood",in vivo; [6],<0.05 %IA/g
same,"Biodistribution, Heart",in vivo; [6],<0.05 %IA/g
same,"Biodistribution, Kidneys",in vivo; [6],0.75 ± 0.07 %IA/g
same,"Biodistribution, Lung",in vivo; [6],0.13 ± 0.02 %IA/g
same,"Biodistribution, Spleen",in vivo; [6],0.06 ± 0.01 %IA/g
"O=C(O)CN1CCN(CC(=O)O)CCN(CC(=O)NCCCC[C@H](NC(=O)CCCCCNC(=O)NCCCC[C@H](N[C@@H](CCc2ccccc2)C(=O)O)C(=O)N2CCC[C@H]2C(=O)O)C(=O)O)CCN(CC(=O)O)CC1 [[^67Ga]Ga-DOTA-LIS-01, metal not drawn]","fraction unbound at 30 min, 0.1 µM",in vitro; [7],0.55
same,"fraction unbound at 30 min, 0.1 µM",in vitro; [8],0.54
same,logD,physchem,-5.47 ± 0.17
"O=C(O)CN1CCN(CC(=O)O)CCN(C(CCC(=O)NCCCC[C@H](NC(=O)CCCCCCCNC(=O)NCCCC[C@H](N[C@@H](CCc2ccccc2)C(=O)O)C(=O)N2CCC[C@H]2C(=O)O)C(=O)O)C(=O)O)CC1 (stereo partly shown) [[^67Ga]Ga-NODAGA-LIS-02, metal not drawn]","fraction unbound at 30 min, 0.1 µM",in vitro; [7],0.46
same,"fraction unbound at 30 min, 0.1 µM",in vitro; [8],0.51
same,logD,physchem,-5.04 ± 0.09
same,tissue uptake at 1 h,in vivo; CD1/nude (Crl:CD1-Foxn nu),0.08 ± 0.01 %ID/g
same,tissue uptake at 3 h,in vivo; CD1/nude (Crl:CD1-Foxn nu),< 0.05 %ID/g
same,tissue uptake at 1 h,in vivo; [9],< 0.05 %ID/g
same,tissue uptake at 3 h,in vivo; [9],< 0.05 %ID/g
same,tissue uptake at 1 h,in vivo; [10],3.6 ± 0.9 %ID/g
same,tissue uptake at 3 h,in vivo; [10],5.2 ± 0.5 %ID/g
same,tissue uptake at 1 h,in vivo; [11],23 ± 6 %ID/g
same,tissue uptake at 3 h,in vivo; [11],2.3 ± 1 %ID/g
same,tissue uptake at 1 h,in vivo; [12],18 ± 1 %ID/g
same,tissue uptake at 3 h,in vivo; [12],9.6 ± 1.2 %ID/g
same,tissue uptake at 1 h,in vivo; [13],0.11 ± 0.12 %ID/g
same,tissue uptake at 3 h,in vivo; [13],< 0.05 %ID/g
same,tissue uptake at 1 h,in vivo; [14],< 0.05 %ID/g
same,tissue uptake at 3 h,in vivo; [14],< 0.05 %ID/g
same,tissue uptake at 1 h,in vivo; [15],0.31 ± 0.18 %ID/g
same,tissue uptake at 3 h,in vivo; [15],0.15 ± 0.1 %ID/g
same,tissue uptake at 3 h,in vivo; [16],< 0.05 %ID/g
same,tissue uptake at 1 h,in vivo; [17],< 0.05 %ID/g
same,tissue uptake at 3 h,in vivo; [17],< 0.05 %ID/g
same,tissue uptake at 1 h,in vivo; [18],1.7 ± 0.6 %ID/g
same,tissue uptake at 3 h,in vivo; [18],0.49 ± 0.13 %ID/g
same,tissue uptake at 1 h,in vivo; [19],0.63 ± 0.06 %ID/g
same,tissue uptake at 3 h,in vivo; [19],0.11 ± 0.04 %ID/g
same,tissue uptake at 1 h,in vivo; [20],< 0.05 %ID/g
same,tissue uptake at 3 h,in vivo; [20],< 0.05 %ID/g
"O=C(O)CN1CCN(CC(=O)O)CCN(CC(=O)NCCCC[C@H](NC(=O)CCCCCCCNC(=O)NCCCC[C@H](N[C@@H](CCc2ccccc2)C(=O)O)C(=O)N2CCC[C@H]2C(=O)O)C(=O)O)CCN(CC(=O)O)CC1 [[^67Ga]Ga-DOTA-LIS-02, metal not drawn]","fraction unbound at 30 min, 0.1 µM",in vitro; [7],0.5 ± 0.01
same,"fraction unbound at 30 min, 0.1 µM",in vitro; [8],0.54
same,tissue uptake at 1 h,in vivo; CD1/nude (Crl:CD1-Foxn nu),0.24 ± 0.01 %ID/g
same,tissue uptake at 3 h,in vivo; CD1/nude (Crl:CD1-Foxn nu),0.08 ± 0.03 %ID/g
same,tissue uptake at 1 h,in vivo; [9],0.14 ± 0.01 %ID/g
same,tissue uptake at 3 h,in vivo; [9],< 0.05 %ID/g
same,tissue uptake at 1 h,in vivo; [10],14 ± 3 %ID/g
same,tissue uptake at 3 h,in vivo; [10],16 ± 1 %ID/g
same,tissue uptake at 1 h,in vivo; [13],0.1 ± 0.03 %ID/g
same,tissue uptake at 3 h,in vivo; [13],< 0.05 %ID/g
same,tissue uptake at 1 h,in vivo; [14],0.18 ± 0.04 %ID/g
same,tissue uptake at 3 h,in vivo; [14],< 0.05 %ID/g
same,tissue uptake at 1 h,in vivo; [15],0.16 ± 0.05 %ID/g
same,tissue uptake at 3 h,in vivo; [16],< 0.05 %ID/g
same,tissue uptake at 1 h,in vivo; [17],0.2 ± 0.06 %ID/g
same,tissue uptake at 3 h,in vivo; [17],< 0.05 %ID/g
same,tissue uptake at 1 h,in vivo; [18],6.3 ± 1 %ID/g
same,tissue uptake at 3 h,in vivo; [18],1.1 ± 0.2 %ID/g
same,tissue uptake at 1 h,in vivo; [19],2.4 ± 0.7 %ID/g
same,tissue uptake at 3 h,in vivo; [19],0.21 ± 0.05 %ID/g
same,tissue uptake at 3 h,in vivo; [20],0.05 ± 0.01 %ID/g
